The results in this text go back to article PMC4207793.

The target in the experiment is trimerized sTNFRII-gAD fusion protein (UniProt P20333). The experiment is described as follows: AUC; ultracentrifuge analysis of the purified trimerized sTNFRII-gAD.

By stoichiometry N is commonly meant the number of molecules, sites or subunits per partner or assembly.

As for “trimerized sTNFRII-gAD fusion protein (from UniProt P20333 23-257)”, the stoichiometry N was found to be 3.
